According to patent EP4624492A1 (Shanghai Hongcheng Biopharmaceutical Co., Ltd., dated 2025):
Substitutions are numbered along the chain they refer to.

B1: 563E10E12_hzH3L0_hIgG1 (antibody)
heavy: not shown
light: DIVMTQSPLSLPVTPGEPASISCRSSKSLLHSNGITYLFWYLQKPGQSPQLLIYQMSNLASGVPDRFSGSGSGTDFTLKISRVEAEDVGVYYCAQSLELPLTFGGGTKVEIKRTVAAPSVFIFPPSDEQLKSGTASVVCLLNNFYPREAKVQWKVDNALQSGNSQESVTEQDSKDSTYSLSSTLTLSKADYEKHKVYACEVTHQGLSSPVTKSFNRGEC
notes: Humanized, hIgG1/K
B2: 563E10E12_hzH0L0_hIgG1 (antibody)
heavy: not shown
light: B1 light
notes: Humanized, hIgG1/K
B3: 563E10E12_hzH0L1_hIgG1 (antibody)
heavy: not shown
light: B1 light with I2V
B4: 563E10E12_hzH2L0_hIgG1 (antibody)
heavy: not shown
light: B1 light
notes: Humanized, hIgG1/K
B5: 563E10E12_hzH2L1_hIgG1 (antibody)
heavy: not shown
light: B1 light with I2V
notes: Humanized, hIgG1/K
B6: 563E10E12_hzH3L1_hIgG1 (antibody)
heavy: not shown
light: B1 light with I2V
notes: Humanized, hIgG1/K
B7: 563E10E12_hzH4L0_hIgG1 (antibody)
heavy: not shown
light: B1 light
notes: Humanized, hIgG1/K
B8: 563E10E12_hzH4L1_hIgG1 (antibody)
heavy: not shown
light: B1 light with I2V
notes: Humanized, hIgG1/K
B9: 563E10E12_hzH5L0_hIgG1 (antibody)
heavy: not shown
light: B1 light
notes: Humanized, hIgG1/K
B10: 563E10E12_hzH5L1_hIgG1 (antibody)
heavy: not shown
light: B1 light with I2V
notes: Humanized, hIgG1/K
B11: 563E10E12_hzH6L0_hIgG1 (antibody)
heavy: not shown
light: B1 light
notes: Humanized, hIgG1/K
B12: 563E10E12_hzH6L1_hIgG1 (antibody)
heavy: not shown
light: B1 light with I2V
notes: Humanized, hIgG1/K
B13: 27B9-1G3_hzH1L2_hIgG1 (antibody, V domains shown)
VH: QVQLVQSGAEVKKPGSSVKVSCKASGGTFSGYNMNWVRQAPGQGLEWMGNIDPYYGGTNYNQKFKGRVTITADKSTSTAYMELSSLRSEDTAVYYCARETWFITTGVIKKGFYFDYWGQGTTVTVSS
VL: EIVLTQSPATLSLSPGERATLACSASSIISSNYLHWYQQKPGQAPRLLIYRTSSLASGIPARFSGSGSGTDYTLTISSLEPEDFAVYYCQQGSSIPRTFGGGTKVEIKR
notes: Humanized, hIgG1/K; hzVH01 + hzVL02
B14: 27B9-1G3_hzH1L1_hIgG1 (antibody, V domains shown)
VH: B13 VH
VL: B13 VL with A22S, Y72F
notes: Humanized, hIgG1/K; hzVH01 + hzVL01
B15: 27B9-1G3_hzH1L3_hIgG1 (antibody, V domains shown)
VH: B13 VH
VL: B13 VL with A44S, I59V, D71S
notes: Humanized, hIgG1/K; hzVH01 + hzVL03
B16: 27B9-1G3_hzH2L1_hIgG1 (antibody, V domains shown)
VH: B13 VH with G27Y, T28S, S30T
VL: B13 VL with A22S, Y72F
notes: Humanized, hIgG1/K; hzVH02 + hzVL01
B17: 27B9-1G3_hzH2L2_hIgG1 (antibody, V domains shown)
VH: B13 VH with G27Y, T28S, S30T
VL: B13 VL
notes: Humanized, hIgG1/K; hzVH02 + hzVL02
B18: 27B9-1G3_hzH2L3_hIgG1 (antibody, V domains shown)
VH: B13 VH with G27Y, T28S, S30T
VL: B13 VL with A44S, I59V, D71S
notes: Humanized, hIgG1/K; hzVH02 + hzVL03
B19: 27B9-1G3_hzH3L1_hIgG1 (antibody, V domains shown)
VH: B13 VH with R67K, V68A
VL: B13 VL with A22S, Y72F
notes: Humanized, hIgG1/K; hzVH03 + hzVL01
B20: 27B9-1G3_hzH3L2_hIgG1 (antibody, V domains shown)
VH: B13 VH with R67K, V68A
VL: B13 VL
notes: Humanized, hIgG1/K; hzVH03 + hzVL02
B21: 27B9-1G3_hzH3L3_hIgG1 (antibody, V domains shown)
VH: B13 VH with R67K, V68A
VL: B13 VL with A44S, I59V, D71S
notes: Humanized, hIgG1/K; hzVH03 + hzVL03
B22: 27B9-1G3_hzH4L1_hIgG1 (antibody, V domains shown)
VH: B13 VH with G27Y, T28S, S30T, R67K, V68A
VL: B13 VL with A22S, Y72F
notes: Humanized, hIgG1/K; hzVH04 + hzVL01
B23: 27B9-1G3_hzH4L2_hIgG1 (antibody, V domains shown)
VH: B13 VH with G27Y, T28S, S30T, R67K, V68A
VL: B13 VL
notes: Humanized, hIgG1/K; hzVH04 + hzVL02
B24: 27B9-1G3_hzH4L3_hIgG1 (antibody, V domains shown)
VH: B13 VH with G27Y, T28S, S30T, R67K, V68A
VL: B13 VL with A44S, I59V, D71S
notes: Humanized, hIgG1/K; hzVH04 + hzVL03
B25: 559E1B10_hzH1L1_DE (antibody, human IgG1, kappa)
heavy: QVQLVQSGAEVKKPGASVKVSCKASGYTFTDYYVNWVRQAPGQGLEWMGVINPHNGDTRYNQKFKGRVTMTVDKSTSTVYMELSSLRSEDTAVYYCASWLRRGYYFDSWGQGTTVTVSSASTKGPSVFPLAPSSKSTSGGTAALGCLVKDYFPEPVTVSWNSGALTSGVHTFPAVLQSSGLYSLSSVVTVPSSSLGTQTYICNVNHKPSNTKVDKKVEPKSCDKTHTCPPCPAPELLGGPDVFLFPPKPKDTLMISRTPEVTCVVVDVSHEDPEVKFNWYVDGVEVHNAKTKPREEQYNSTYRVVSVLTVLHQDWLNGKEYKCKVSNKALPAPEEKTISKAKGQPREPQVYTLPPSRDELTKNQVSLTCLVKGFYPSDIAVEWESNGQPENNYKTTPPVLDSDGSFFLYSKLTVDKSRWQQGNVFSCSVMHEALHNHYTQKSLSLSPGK
light: EIVLTQSPATLSLSPGERATLSCRASQSISDYLHWYQQKPGQAPRLLLKYVSQSISGIPARFSGSGSGTDFTLTISSLEPEDFAVYYCQNGHSFPLTFGGGTKVEIKRTVAAPSVFIFPPSDEQLKSGTASVVCLLNNFYPREAKVQWKVDNALQSGNSQESVTEQDSKDSTYSLSSTLTLSKADYEKHKVYACEVTHQGLSSPVTKSFNRGEC
B26: 559E1B10_hzH1L1_VLPLL (antibody, human IgG1, kappa)
heavy: QVQLVQSGAEVKKPGASVKVSCKASGYTFTDYYVNWVRQAPGQGLEWMGVINPHNGDTRYNQKFKGRVTMTVDKSTSTVYMELSSLRSEDTAVYYCASWLRRGYYFDSWGQGTTVTVSSASTKGPSVFPLAPSSKSTSGGTAALGCLVKDYFPEPVTVSWNSGALTSGVHTFPAVLQSSGLYSLSSVVTVPSSSLGTQTYICNVNHKPSNTKVDKKVEPKSCDKTHTCPPCPAPELVGGPSVFLLPPKPKDTLMISRTPEVTCVVVDVSHEDPEVKFNWYVDGVEVHNAKTKPPEEQYNSTLRVVSVLTVLHQDWLNGKEYKCKVSNKALPAPIEKTISKAKGQPREPQVYTLPPSRDELTKNQVSLTCLVKGFYPSDIAVEWESNGQPENNYKTTPLVLDSDGSFFLYSKLTVDKSRWQQGNVFSCSVMHEALHNHYTQKSLSLSPGK
light: B25 light
B27: 563E10E12_hzH1L1_VLPLL (antibody, human IgG1, kappa)
heavy: EVQLVESGGGLVQPGGSLKLSCAASGFNFNAYAMNWVRQASGKGLEWVGRIRSKSNNFATYYADSVTDRFTISRDDSKNTAYLQMNSLKTEDTAVYYCVRHGRRDLLYSMDFWGQGTTVTVSSASTKGPSVFPLAPSSKSTSGGTAALGCLVKDYFPEPVTVSWNSGALTSGVHTFPAVLQSSGLYSLSSVVTVPSSSLGTQTYICNVNHKPSNTKVDKKVEPKSCDKTHTCPPCPAPELVGGPSVFLLPPKPKDTLMISRTPEVTCVVVDVSHEDPEVKFNWYVDGVEVHNAKTKPPEEQYNSTLRVVSVLTVLHQDWLNGKEYKCKVSNKALPAPIEKTISKAKGQPREPQVYTLPPSRDELTKNQVSLTCLVKGFYPSDIAVEWESNGQPENNYKTTPLVLDSDGSFFLYSKLTVDKSRWQQGNVFSCSVMHEALHNHYTQKSLSLSPGK
light: B1 light with I2V
B28: 563E10E12_hzH1L1_DE (antibody, human IgG1, kappa)
heavy: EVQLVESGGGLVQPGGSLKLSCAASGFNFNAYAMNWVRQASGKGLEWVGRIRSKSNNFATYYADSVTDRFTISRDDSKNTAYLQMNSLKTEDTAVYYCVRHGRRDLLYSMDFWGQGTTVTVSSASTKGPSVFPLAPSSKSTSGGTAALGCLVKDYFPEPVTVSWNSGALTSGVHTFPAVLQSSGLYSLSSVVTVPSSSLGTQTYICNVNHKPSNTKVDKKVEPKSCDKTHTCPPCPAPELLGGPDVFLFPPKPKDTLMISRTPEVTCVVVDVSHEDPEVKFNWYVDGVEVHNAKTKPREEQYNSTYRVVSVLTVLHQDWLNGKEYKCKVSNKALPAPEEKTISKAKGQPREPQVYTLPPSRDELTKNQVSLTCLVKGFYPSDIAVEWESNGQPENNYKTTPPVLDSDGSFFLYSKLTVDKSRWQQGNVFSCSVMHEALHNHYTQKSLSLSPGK
light: B1 light with I2V

Biological target: T1, human CCR8 (human, UniProt P51685 1-355)
T1 sequence (P51685 whole entry): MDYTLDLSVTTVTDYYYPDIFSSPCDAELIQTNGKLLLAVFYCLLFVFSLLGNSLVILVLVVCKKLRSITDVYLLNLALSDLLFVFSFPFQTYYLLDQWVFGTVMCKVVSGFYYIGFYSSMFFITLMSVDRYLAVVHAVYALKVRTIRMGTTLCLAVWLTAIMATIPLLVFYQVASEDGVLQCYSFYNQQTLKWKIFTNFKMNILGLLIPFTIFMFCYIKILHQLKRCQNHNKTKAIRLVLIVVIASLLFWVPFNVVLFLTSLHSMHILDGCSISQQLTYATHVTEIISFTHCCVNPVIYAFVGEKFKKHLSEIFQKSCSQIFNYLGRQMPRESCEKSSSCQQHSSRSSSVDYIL
Test: cell-based or functional assay

Binder | IC50 of blockade of CCL1-induced β-arrestin recruitment
B1 | 1160 ng/mL
B2 | 3510 ng/mL
B3 | 3650 ng/mL
B4 | 1460 ng/mL
B5 | 1520 ng/mL
B6 | 1530 ng/mL
B7 | 1490 ng/mL
B8 | 2100 ng/mL
B9 | 1700 ng/mL
B10 | 1380 ng/mL
B11 | 1840 ng/mL
B12 | 1650 ng/mL

Biological target: T1, human CCR8
Test: cell-based or functional assay
Remark: another data set of the same source

Binder | EC50 of activation of Jurkat-human FcγRIIIa(158V)-NFAT with 293F-hCCR8 target cells
B1 | 35.7 ng/mL
B2 | 28.6 ng/mL
B3 | 29.9 ng/mL
B4 | 28.1 ng/mL
B5 | 30.5 ng/mL
B6 | 26.1 ng/mL
B7 | 38.8 ng/mL
B8 | 25.9 ng/mL
B9 | 35.5 ng/mL
B10 | 26.4 ng/mL

Biological target: T1, human CCR8
Test: flow cytometry on 293F-hCCR8 cells

Binder | EC50
B1 | 0.133 µg/mL
B2 | 0.107 µg/mL
B3 | 0.118 µg/mL
B4 | 0.103 µg/mL
B5 | 0.136 µg/mL
B6 | 0.114 µg/mL
B7 | 0.102 µg/mL
B8 | 0.116 µg/mL
B9 | 0.13 µg/mL
B10 | 0.129 µg/mL
B11 | 0.0569 µg/mL
B12 | 0.0593 µg/mL
B13 | 0.237 µg/mL
B14 | 0.188 µg/mL
B15 | 0.175 µg/mL
B16 | 0.246 µg/mL
B17 | 0.19 µg/mL
B18 | 0.212 µg/mL
B19 | 0.175 µg/mL
B20 | 0.2 µg/mL
B21 | 0.198 µg/mL
B22 | 0.178 µg/mL
B23 | 0.196 µg/mL
B24 | 0.22 µg/mL

Biological target: T1, human CCR8
Test: flow cytometry, competition with 10 nM AF647-human CCL1 on 293F-hCCR8 cells

Binder | IC50
B1 | 0.0761 µg/mL
B2 | 0.0958 µg/mL
B3 | 0.0862 µg/mL
B4 | 0.0689 µg/mL
B5 | 0.064 µg/mL
B6 | 0.0732 µg/mL
B7 | 0.0544 µg/mL
B8 | 0.0458 µg/mL
B9 | 0.0851 µg/mL
B10 | 0.0878 µg/mL
B11 | 0.0543 µg/mL
B12 | 0.0579 µg/mL
B13 | 0.291 µg/mL
B14 | 0.31 µg/mL
B15 | 0.228 µg/mL
B16 | 0.269 µg/mL
B17 | 0.299 µg/mL
B18 | 0.192 µg/mL
B19 | 0.121 µg/mL
B20 | 0.15 µg/mL
B21 | 0.189 µg/mL
B22 | 0.163 µg/mL
B23 | 0.162 µg/mL
B24 | 0.167 µg/mL

Biological target: T1, human CCR8
Test: cell-based or functional assay
Remark: another data set of the same source

Binder | EC50 of activation of Jurkat-human FcγRIIIa(158V)-NFAT with 293F-hCCR8 target cells
B25 | 0.6 ng/mL
B26 | 1.4 ng/mL
B27 | 1.3 ng/mL
B28 | 0.6 ng/mL
